The values below come from patent publication US20240262926A1 (published 2024).

As usually defined, the EC50 is the concentration giving half of the maximal effect. The Kd is a measure of binding affinity in units of concentration. Broadly, the koff is the first-order rate constant of dissociation. What is called kon is the second-order rate constant of association.

Experiment [1] addresses human TrkB (GenBank Acc. No. NP_001018074.1) expressed in CHO cells (human, UniProt Q16620 32-822). Briefly: cell-based or functional assay.
The target in experiment [2] is T1, recombinant monkey TfR (r monkey TfR: Sino Biological Inc.) (cynomolgus monkey (Macaca fascicularis), UniProt Q5RDH6 89-760 (Pongo abelii entry)).
T1 construct: Bought product; also called r monkey TfR-ECD (Histag); cynomolgus monkey TfR; not shown: histidine tag attached to the N-terminus
T1 chain: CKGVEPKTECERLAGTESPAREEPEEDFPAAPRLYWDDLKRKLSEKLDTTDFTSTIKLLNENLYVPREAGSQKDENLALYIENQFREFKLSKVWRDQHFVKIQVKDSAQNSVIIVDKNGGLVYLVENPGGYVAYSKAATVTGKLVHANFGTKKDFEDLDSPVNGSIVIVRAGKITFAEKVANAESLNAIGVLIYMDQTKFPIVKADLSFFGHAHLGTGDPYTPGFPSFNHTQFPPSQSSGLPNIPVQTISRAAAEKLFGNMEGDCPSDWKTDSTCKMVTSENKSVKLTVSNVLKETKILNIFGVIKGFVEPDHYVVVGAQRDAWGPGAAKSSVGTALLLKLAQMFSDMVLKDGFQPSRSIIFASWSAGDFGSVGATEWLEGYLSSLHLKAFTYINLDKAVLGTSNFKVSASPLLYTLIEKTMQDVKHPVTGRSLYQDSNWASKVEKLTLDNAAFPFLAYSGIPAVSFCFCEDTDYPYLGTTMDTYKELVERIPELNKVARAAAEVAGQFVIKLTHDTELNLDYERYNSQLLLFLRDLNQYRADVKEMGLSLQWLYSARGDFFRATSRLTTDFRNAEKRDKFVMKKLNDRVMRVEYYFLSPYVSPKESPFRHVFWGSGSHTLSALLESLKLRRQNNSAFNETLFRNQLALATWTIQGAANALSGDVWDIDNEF
Briefly: ELISA, plate-coated recombinant TfR, detection with biotin-labeled anti-BDNF antibody and streptavidin-HRP. The protocol: (§1) The affinity of the hBDNF-anti-hTfR antibody fusion protein to hTfR was measured using an ELISA method. The measurement by the ELISA method was generally carried out by the following method. As human TfR, recombinant human TfR (r human TfR: Sino Biological Inc.) having the amino acid sequence of the extracellular region of hTfR, ranging from the cysteine residue at the position 89th from the N-terminal side to the phenylalanine at the C-terminus in the amino acid sequence set forth as SEQ ID NO:1, to the N-terminus of which a histidine tag was added, was used. As monkey TfR, recombinant monkey TfR (r monkey TfR: Sino Biological Inc.) having the amino acid sequence of the extracellular region of cynomolgus monkey hTfR, ranging from the cysteine residue at the position 89th from the N-terminal side to the phenylalanine at the C-terminus in the amino acid sequence set forth as SEQ ID NO:2, to the N-terminus of which a histidine tag was added, was used. The measurement was carried out on the hBDNF-anti-hTfR antibodies 3, 4 and 6 among the hBDNF-humanized anti-hTfR antibody fusion proteins obtained in Example 17.
(§2) Recombinant human and monkey TfR (Sino Biological Inc.) were each diluted to 0.5 μg/mL, and the diluted solution was then added in an amount of 100 μL to each well of a 96-well plate (Nunc Inc), followed by leaving it to stand for 1 hour. […]
A general note: In an ELISA, binding on a coated surface is turned into a signal by an enzyme label.

Experiment [3] deals with T2, recombinant human TfR (r human TfR: Sino Biological Inc.) (human, UniProt P02786 89-760).
T2 construct: Bought product; also called r human TfR-ECD (Histag); hTfR; not shown: histidine tag attached to the N-terminus
The experiment is described as above. Here is the method: as §1, §2

Experiment [4] addresses T1, recombinant monkey TfR (r monkey TfR: …). Put plainly: BLI (Octet RED96), method of Example 7, His-tagged TfR ECD on Ni-NTA sensor. The protocol: (§3) Each of the antibodies (anti-hTfR antibody Nos. 1 to 14) purified above was subjected to 2-fold dilution steps with HBS-P+(10 mM HEPES containing 150 mM NaCl, 50 μM EDTA and 0.05% Surfactant P20) to prepare antibody solutions of 7 different concentrations, 0.78125 to 50 nM (0.117 to 7.5 μg/mL). These antibody solutions were used as the sample solutions. The r human and r monkey TfRs were respectively diluted with HBS-P+ to prepare 25 μg/mL solutions, which were used as r human TfR-ECD (Histag) solution and r monkey TfR-ECD (Histag) solution, respectively.
(§4) Each of the sample solutions prepared above by 2-fold dilution steps was added, 200 μL/well, to a 96-well plate, black (Greiner Bio-One Inc.). Each of the r human TfR-ECD (Histag) solution and the r monkey TfR-ECD (Histag) solutions prepared above was added, 200 μL/well, to predetermined wells. To respective wells for baseline, dissociation and washing were added HBS-P+, 200 μL/well. To wells for regeneration were added 10 mM Glycine-HCl, pH 1.7, 200 μL/well. To wells for activation was added 0.5 mM NiCl₂ solution, 200 μL/well. The plate and biosensor (Biosensor/Ni-NTA: ForteBio Inc., a division of Pall Corporation) were set in the prescribed positions of Octet RED96. […] The measurement was performed at 25 to 30° C.
(§5) The affinity of the humanized anti-hTfR antibodies obtained in Example 13 to human and monkey TfRs was measured by the method described in Example 7.
On the technique in general: BLI is a label-free optical method that tracks binding on a fibre tip over time.

Experiment [5] has as its target T2, recombinant human TfR (r human TfR: …). The experiment is described as above. The protocol:
as §3, §4, §5

Experiment [6] deals with T1, recombinant monkey TfR (r monkey TfR: …). Briefly: ELISA on plate-coated recombinant TfR ('the present measurement method' of Example 18-2).
Experiment [7] deals with T2, recombinant human TfR (r human TfR: …). Described as above.

Chain of human TrkB (GenBank Acc. No. NP_001018074.1) expressed in CHO cells (Q16620 32-822): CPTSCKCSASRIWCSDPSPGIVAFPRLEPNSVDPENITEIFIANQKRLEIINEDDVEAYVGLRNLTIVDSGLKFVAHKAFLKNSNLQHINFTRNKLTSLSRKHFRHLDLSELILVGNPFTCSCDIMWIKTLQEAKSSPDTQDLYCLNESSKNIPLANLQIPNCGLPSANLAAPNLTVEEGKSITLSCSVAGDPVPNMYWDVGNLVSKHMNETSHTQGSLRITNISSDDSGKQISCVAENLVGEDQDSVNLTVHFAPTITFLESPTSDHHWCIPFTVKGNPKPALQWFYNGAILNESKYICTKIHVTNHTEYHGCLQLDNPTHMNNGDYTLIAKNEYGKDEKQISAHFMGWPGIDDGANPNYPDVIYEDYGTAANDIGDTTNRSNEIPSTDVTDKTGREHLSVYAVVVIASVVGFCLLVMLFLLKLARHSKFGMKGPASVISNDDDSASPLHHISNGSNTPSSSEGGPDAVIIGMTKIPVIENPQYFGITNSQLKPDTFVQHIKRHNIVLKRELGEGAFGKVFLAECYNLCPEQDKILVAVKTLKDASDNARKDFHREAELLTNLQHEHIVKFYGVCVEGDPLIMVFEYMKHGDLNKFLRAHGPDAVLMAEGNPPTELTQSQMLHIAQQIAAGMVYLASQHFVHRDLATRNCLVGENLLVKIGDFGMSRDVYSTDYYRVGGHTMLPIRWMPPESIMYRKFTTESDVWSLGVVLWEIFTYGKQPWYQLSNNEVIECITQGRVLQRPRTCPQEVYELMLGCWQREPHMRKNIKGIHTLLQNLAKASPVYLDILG

B1: hBDNF-anti-hTfR antibody 6 (other)
heavy: HSDPARRGELSVCDSISEWVTAADKKTAVDMSGGTVTVLEKVPVSKGQLKQYFYETKCNPMGYTKEGCRGIDKRHWNSQCRTTQSYVRALTMDSKKRIGWRFIRIDTSCVCTLTIKRGRGSGGGGSGGGGSGGGGSGGGGSGGGGSEVQLVQSGAEVKKPGESLKISCKGSGYSFTNYWLGWVRQMPGKGLEWMGDIYPGGDYPTYSEKFKVQVTISADKSISTAYLQWSSLKASDTAMYYCARSGNYDEVAYWGQGTLVTVSSASTKGPSVFPLAPSSKSTSGGTAALGCLVKDYFPEPVTVSWNSGALTSGVHTFPAVLQSSGLYSLSSVVTVPSSSLGTQTYICNVNHKPSNTKVDKKVEPKSCDKTHT
light: DIVMTQTPLSLSVTPGQPASISCRSSQSLVHSNGNTYLHWYLQKPGQSPQLLIYKVSNRFSGVPDRFSGSGSGTDFTLKISRVEAEDVGVYYCSQSTHVPWTFGQGTKVEIKRTVAAPSVFIFPPSDEQLKSGTASVVCLLNNFYPREAKVQWKVDNALQSGNSQESVTEQDSKDSTYSLSSTLTLSKADYEKHKVYACEVTHQGLSSPVTKSFNRGEC
notes: also called fusion protein of hBDNF and humanized anti-hTfR antibody Fab; product of pE-neo (BDNF-Fab HC-1) and pE-hygr (LC3)
With B1, the “BDNF activity (TrkB agonistic EC50, nmol/L)” value in experiment [1] amounted to 0.16 nmol/L. Moreover, the values for the EC50 in experiment [2] and in experiment [3] were 2.3 nM and 0.63 nM, respectively.

B2: humanized anti-hTfR antibody No. 3 (antibody, human IgG1, kappa)
heavy: not shown
light: DIVMTQTPLSLSVTPGQPASISCRSSQSLVHSNGNTYLHWYLQKPGQSPQLLIYKVSNRFSGVPDRFSGSGSGTDFTLKISRVEAEDVGVYYCSQSTHVPWTFGQGTKVEIKRTVAAPSVFIFPPSDEQLKSGTASVVCLLNNFYPREAKVQWKVDNALQSGNSQESVTEQDSKDSTYSLSSTLTLSKADYEKHKVYACEVTHQGLSSPVTKSFNRGEC
notes: IgG1; expressed in CHO-K1, purified on Protein A
In the case of B2, in experiment [4], the Kd came to 1.12 nM, the koff is 0.000676 s⁻¹ and the kon amounted to 603000 M⁻¹ s⁻¹. Besides, in experiment [5], the Kd is less than 0.001 nM, the koff is less than 1e-07 s⁻¹ and the kon was found to be 1.19e+06 M⁻¹ s⁻¹. Moreover, the concentration for a half-maximal effect (EC50) in experiment [6] amounted to 0.25 nM. The EC50 in experiment [7] came out at 0.09 nM.

B3: hBDNF-anti-hTfR antibody 7 (other)
heavy: HSDPARRGELSVCDSISEWVTAADKKTAVDMSGGTVTVLEKVPVSKGQLKQYFYETKCNPMGYTKEGCRGIDKRHWNSQCRTTQSYVRALTMDSKKRIGWRFIRIDTSCVCTLTIKRGRGSGGGGSGGGGSGGGGSGGGGSGGGGSEVQLVQSGAEVKKPGESLKISCKGSGYSFTNYWLGWVRQMPGKGLEWMGDIYPGGDYPTYSEKFKVQVTISADKSISTAYLQWSSLKASDTAMYYCARSGNYDEVAYWGQGTLVTVSSASTKGPSVFPLAPSSKSTSGGTAALGCLVKDYFPEPVTVSWNSGALTSGVHTFPAVLQSSGLYSLSSVVTVPSSSLGTQTYICNVNHKPSNTKVDKKVEPKSCDKTHT
light: DIVMTQTPLSLSVTPGQPASISCRSSQSLVHSNGNTYLHWYLQKPGQSPQLLIYKVSNRFSGVPDRFSGSGSGTDFTLKISRVEAEDVGVYYCSQSTHVPWTFGQGTKVEIKRTVAAPSVFIFPPSDEQLKSGTASVVCLLNNFYPREAKVQWKVDNALQSGNSQESVTEQDSKDSTYSLSSTLTLSKADYEKHKVYACEVTHQGLSSPVTKSFNRGEC
Turning to B3, the “BDNF activity (TrkB agonistic EC50, nmol/L)” value in experiment [1] turned out to be 0.23 nmol/L.
